Measured values taken from patent US20180009908.
Changes are numbered by the printed parent chain. Names and notes keep the numbering of the source.

Columns and labels:
[1] = target: BHA10 HC_20.8_B + BHA10 LC (IgG1); assay: LCMS, IgG1 BsAb co-expression in HEK293F
[2] = target: matuzumab HC_20.8_B + matuzumab LC (IgG1); assay: LCMS, IgG1 BsAb co-expression in HEK293F
[3] = LCMS, IgG1 BsAb co-expression; HCA homodimer species
[4] = target: BHA10 HC_20.8_B + BHA10 LC (IgG1); assay: LCMS, IgG1 BsAb co-expression; HCA/HCB heterodimer carrying two LC1
[5] = target: matuzumab HC_20.8_B + matuzumab LC (IgG1); assay: as above
[6] = target: BHA10 HC_20.8_B + BHA10 LC (IgG1); assay: LCMS, IgG1 BsAb co-expression; HCA/HCB heterodimer carrying two LC2
[7] = target: matuzumab HC_20.8_B + matuzumab LC (IgG1); assay: as above
[8] = target: BHA10 HC_7.8.60_B + BHA10 LC (IgG4 HC backbone); assay: LCMS, IgG4 BsAb co-expression in HEK293F
[9] = target: matuzumab HC_7.8.60_B + matuzumab LC (IgG4 HC backbone); assay: LCMS, IgG4 BsAb co-expression in HEK293F
[10] = LCMS, IgG4 BsAb co-expression; HCA homodimer species
[11] = target: BHA10 HC_7.8.60_B + BHA10 LC (IgG4 HC backbone); assay: LCMS, IgG4 BsAb co-expression; HCA/HCB heterodimer carrying two LC1
[12] = target: matuzumab HC_7.8.60_B + matuzumab LC (IgG4 HC backbone); assay: as above
[13] = target: BHA10 HC_7.8.60_B + BHA10 LC (IgG4 HC backbone); assay: LCMS, IgG4 BsAb co-expression; HCA/HCB heterodimer carrying two LC2
[14] = target: matuzumab HC_7.8.60_B + matuzumab LC (IgG4 HC backbone); assay: as above
[15] = target: BHA10 HC_20.8.34_B + BHA10 LC (IgG4 HC backbone); assay: LCMS, IgG4 BsAb co-expression in HEK293F
[16] = target: matuzumab HC_20.8.34_B + matuzumab LC (IgG4 HC backbone); assay: LCMS, IgG4 BsAb co-expression in HEK293F
[17] = target: BHA10 HC_20.8.34_B + BHA10 LC (IgG4 HC backbone); assay: LCMS, IgG4 BsAb co-expression; HCA/HCB heterodimer carrying two LC1
[18] = target: matuzumab HC_20.8.34_B + matuzumab LC (IgG4 HC backbone); assay: as above
[19] = target: BHA10 HC_20.8.34_B + BHA10 LC (IgG4 HC backbone); assay: LCMS, IgG4 BsAb co-expression; HCA/HCB heterodimer carrying two LC2
[20] = target: matuzumab HC_20.8.34_B + matuzumab LC (IgG4 HC backbone); assay: as above
[21] = target: T1, HA-tagged human IgG1 Fc portion with CH3 mutations E356G, E357D, S364Q, Y407A; assay: UPLC SEC of protein G-purified one-arm antibody co-expressed in HEK293F
T1 chain: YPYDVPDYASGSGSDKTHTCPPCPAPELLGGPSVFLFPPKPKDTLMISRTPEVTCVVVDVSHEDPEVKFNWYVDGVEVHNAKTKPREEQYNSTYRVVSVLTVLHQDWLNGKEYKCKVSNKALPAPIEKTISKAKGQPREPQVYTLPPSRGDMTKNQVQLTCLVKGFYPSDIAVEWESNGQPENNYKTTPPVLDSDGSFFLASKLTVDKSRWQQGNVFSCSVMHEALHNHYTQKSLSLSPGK

[22] = target: T2, HA-tagged human IgG1 Fc portion with CH3 mutations E357D, S364Q, Y407A; assay: as above
T2 chain: T1 chain with G150E

[23] = target: T3, HA-tagged human IgG1 Fc portion with CH3 mutations E357D, S364R, Y407A; assay: as above
T3 chain: T1 chain with G150E, Q158R

[24] = target: T4, HA-tagged human IgG1 Fc portion with CH3 mutations E345R, Q347R, T366V, K409V; assay: as above
T4 chain: T1 chain with E139R, Q141R, G150E, D151E, Q158S, T160V, A201Y, K203V

[25] = Pertuzumab × BHA10 IgG BsAbs (with select CH3 Designs)
[26] = Pertuzumab × Matuzumab IgG BsAbs (with select CH3 Designs)

B1: pertuzumab HC_20.8_A + pertuzumab LC (IgG1) (protein)
chain 1: EVQLVESGGGLVQPGGSLRLSCAASGFTFTDYTMDWVRKAPGKGLEWVADVNPNSGGSIYNQEFKGRFTLSVDRSKNTLYLQMNSLRAEDTAVYYCARNLGPSFYFDYWGQGTLVTVSSASTKGPSVFPLAPSSKSTSGGTAALGCLVKDYFPEPVTVSWNSGALTSGVATGPAVLQSSGLYSLSSVVTVPSSSLGTQTYICNVNHKPSNTKVDKKVEPKSCDKTHTCPPCPAPELLGGPSVFLFPPKPKDTLMISRTPEVTCVVVDVSHEDPEVKFNWYVDGVEVHNAKTKPREEQYQSTYRVVSVLTVLHQDWLNGKEYKCKVSNKALPAPIEKTISKAKGQPREPQVSTLPPSREEMTKNQVSLVCLVYGFYPSDIAVEWESNGQPENNYKTTPPVLDSDGSFFLYSVLTVDKSRWQQGNVFSCSVMHEALHNHYTQKSLSLSPGK
chain 2: RIQMTQSPSSLSASVGDRVTITCKASQDVSIGVAWYQDKPGKAPKLLIYSASYRYTGVPSRFSGSGSGTDFTLTISSLQPEDFATYYCQQYYIYPYTFGQGTKVEIKGQPKAAPSVTLFPPSSEELQANKATLVCYISDFYPGAVTVAWKADSSPVKAGVETTTPSKQSNNKYAAWSYLSLTPEQWKSHRSYSCQVTHEGSTVEKTVAPTEC
- % AB (LC1/LC2) (correct IgG BsAb assembly) [1]: 96.5%
- % AB (LC1/LC2) (correct IgG BsAb assembly) [2]: 96%
- % AA Homodimer (incorrect assembly) ([3]; pertuzumab × BHA10 bispecific): 3.5%
- % AA Homodimer (incorrect assembly) ([3]; pertuzumab × matuzumab bispecific): 2.1%
- % AB (2x LC1) (incorrect assembly) [4]: 0%
- % AB (2x LC1) (incorrect assembly) [5]: 0%
- % AB (2x LC2) (incorrect assembly) [6]: 0%
- % AB (2x LC2) (incorrect assembly) [7]: 0%

B2: pertuzumab HC_7.8.60_A + pertuzumab LC (IgG4 HC backbone) (protein)
chain 1: EVQLVESGGGLVQPGGSLRLSCAASGFTFTDYTMDWVRKAPGKGLEWVADVNPNSGGSIYNQEFKGRFTLSVDRSKNTLYLQMNSLRAEDTAVYYCARNLGPSFYFDYWGQGTLVTVSSASTKGPSVFPLAPCSRSTSESTAALGCLVKDYFPEPVTVSWNSGALTSGVATGPAVLQSSGLYSLSSVVTVPSSSLGTKTYTCNVDHKPSNTKVDKRVESKYGPPCPPCPAPEAAGGPSVFLFPPKPKDTLMISRTPEVTCVVVDVSQEDPEVQFNWYVDGVEVHNAKTKPREEQFQSTYRVVSVLTVLHQDWLNGKEYKCKVSNKGLPSSIEKTISKAKGQPREPQVYTLPPSQEEMTDNQVSLTCLVKGFYPSDIAVEWESNGQPENNYKTTPPVLMSDGSFFLASRLTVDKSRWQEGNVFSCSVMHEALHNHYTQKSLSLSLG
chain 2: B1 chain 2
- % AB (LC1/LC2) (correct IgG BsAb assembly) [8]: 95.8%
- % AB (LC1/LC2) (correct IgG BsAb assembly) [9]: 90.9%
- % AA Homodimer (incorrect assembly) [10, 25]: 0%
- % AA Homodimer (incorrect assembly) [10, 26]: 9.1%
- % AB (2x LC1) (incorrect assembly) [11]: 0%
- % AB (2x LC1) (incorrect assembly) [12]: 0%
- % AB (2x LC2) (incorrect assembly) [13]: 0%
- % AB (2x LC2) (incorrect assembly) [14]: 0%

B3: pertuzumab HC_20.8.34_A + pertuzumab LC (IgG4 HC backbone) (protein)
chain 1: B2 chain 1 with Y348S, D359K, T365M, K369Y, M398D, A406Y, R408V
chain 2: B1 chain 2
- % AB (LC1/LC2) (correct IgG BsAb assembly) [15]: 94.8%
- % AB (LC1/LC2) (correct IgG BsAb assembly) [16]: 94.1%
- % AA Homodimer (incorrect assembly) [10, 25]: 5.2%
- % AA Homodimer (incorrect assembly) [10, 26]: 2.3%
- % AB (2x LC1) (incorrect assembly) [17]: 0%
- % AB (2x LC1) (incorrect assembly) [18]: 0%
- % AB (2x LC2) (incorrect assembly) [19]: 0%
- % AB (2x LC2) (incorrect assembly) [20]: 0%

B4: anti-c-Met 5D5 VH-human IgG1 HC with CH3 mutations Y349S, K370Y, T366V, K409V, with 5D5 light chain (protein)
chain 1: EVQLVESGGGLVQPGGSLRLSCAASGYTFTSYWLHWVRQAPGKGLEWVGMIDPSNSDTRFNPNFKDRFTISADTSKNTAYLQMNSLRAEDTAVYYCATYRSYVTPLDYWGQGTLVTVSSASTKGPSVFPLAPSSKSTSGGTAALGCLVKDYFPEPVTVSWNSGALTSGVHTFPAVLQSSGLYSLSSVVTVPSSSLGTQTYICNVNHKPSNTKVDKRVEPKSCDKTHTCPPCPAPELLGGPSVFLFPPKPKDTLMISRTPEVTCVVVDVSHEDPEVKFNWYVDGVEVHNAKTKPREEQYNSTYRVVSVLTVLHQDWLNGKEYKCKVSNKALPAPIEKTISKAKGQPREPQVSTLPPSREEMTKNQVSLVCLVYGFYPSDIAVEWESNGQPENNYKTTPPVLDSDGSFFLYSVLTVDKSRWQQGNVFSCSVMHEALHNHYTQKSLSLSPGK
chain 2: DIQMTQSPSSLSASVGDRVTITCKSSQSLLYTSSQKNYLAWYQQKPGKAPKLLIYWASTRESGVPSRFSGSGSGTDFTLTISSLQPEDFATYYCQQYYAYPWTFGQGTKVEIKRTVAAPSVFIFPPSDEQLKSGTASVVCLLNNFYPREAKVQWKVDNALQSGNSQESVTEQDSKDSTYSLSSTLTLSKADYEKHKVYACEVTHQGLSSPVTKSFNRGEC
- % heterodimer (UPLC) [21]: 93%
- % heterodimer (UPLC) [22]: 84.9%
- % heterodimer (UPLC) [23]: 86.5%

B5: anti-c-Met 5D5 VH-human IgG1 HC with CH3 mutations Y349S, K370Y, T366M, K409V, with 5D5 light chain (protein)
chain 1: B4 chain 1 with V368M
chain 2: B4 chain 2
- % heterodimer (UPLC) [21]: 83.8%
- % heterodimer (UPLC) [22]: 86%
- % heterodimer (UPLC) [23]: 83.5%

B6: anti-c-Met 5D5 VH-human IgG1 HC with CH3 mutations K360D, D399M, Y407A, with 5D5 light chain (protein)
chain 1: B4 chain 1 with S351Y, K362D, V368T, Y372K, D401M, Y409A, V411K
chain 2: B4 chain 2
- % heterodimer (UPLC) [24]: 93%
